Experiments:
fibronectin [1] = target: fibronectin (UniProt P02751); experiment: ELISA; wells coated with 10 μg/ml purified fibronectin in 0.05 M Na2CO3 pH 9.0; 0.03125-2 μM GST or GST-tagged OspC variants, 1 hr at ambient temperature; goat anti-GST and HRP-conjugated anti-goat IgG; estimated KD from a fit of OD405
fibronectin [2] = target: fibronectin (UniProt P02751); experiment: SPR; Biacore 3000; fibronectin on a CM5 chip; 0-500 nM untagged OspC variants injected at 10 μl/min, 25°C; 1:1 Langmuir model; KD from the average koff divided by kon of each run

fibronectin, sequence (P02751 32-2477): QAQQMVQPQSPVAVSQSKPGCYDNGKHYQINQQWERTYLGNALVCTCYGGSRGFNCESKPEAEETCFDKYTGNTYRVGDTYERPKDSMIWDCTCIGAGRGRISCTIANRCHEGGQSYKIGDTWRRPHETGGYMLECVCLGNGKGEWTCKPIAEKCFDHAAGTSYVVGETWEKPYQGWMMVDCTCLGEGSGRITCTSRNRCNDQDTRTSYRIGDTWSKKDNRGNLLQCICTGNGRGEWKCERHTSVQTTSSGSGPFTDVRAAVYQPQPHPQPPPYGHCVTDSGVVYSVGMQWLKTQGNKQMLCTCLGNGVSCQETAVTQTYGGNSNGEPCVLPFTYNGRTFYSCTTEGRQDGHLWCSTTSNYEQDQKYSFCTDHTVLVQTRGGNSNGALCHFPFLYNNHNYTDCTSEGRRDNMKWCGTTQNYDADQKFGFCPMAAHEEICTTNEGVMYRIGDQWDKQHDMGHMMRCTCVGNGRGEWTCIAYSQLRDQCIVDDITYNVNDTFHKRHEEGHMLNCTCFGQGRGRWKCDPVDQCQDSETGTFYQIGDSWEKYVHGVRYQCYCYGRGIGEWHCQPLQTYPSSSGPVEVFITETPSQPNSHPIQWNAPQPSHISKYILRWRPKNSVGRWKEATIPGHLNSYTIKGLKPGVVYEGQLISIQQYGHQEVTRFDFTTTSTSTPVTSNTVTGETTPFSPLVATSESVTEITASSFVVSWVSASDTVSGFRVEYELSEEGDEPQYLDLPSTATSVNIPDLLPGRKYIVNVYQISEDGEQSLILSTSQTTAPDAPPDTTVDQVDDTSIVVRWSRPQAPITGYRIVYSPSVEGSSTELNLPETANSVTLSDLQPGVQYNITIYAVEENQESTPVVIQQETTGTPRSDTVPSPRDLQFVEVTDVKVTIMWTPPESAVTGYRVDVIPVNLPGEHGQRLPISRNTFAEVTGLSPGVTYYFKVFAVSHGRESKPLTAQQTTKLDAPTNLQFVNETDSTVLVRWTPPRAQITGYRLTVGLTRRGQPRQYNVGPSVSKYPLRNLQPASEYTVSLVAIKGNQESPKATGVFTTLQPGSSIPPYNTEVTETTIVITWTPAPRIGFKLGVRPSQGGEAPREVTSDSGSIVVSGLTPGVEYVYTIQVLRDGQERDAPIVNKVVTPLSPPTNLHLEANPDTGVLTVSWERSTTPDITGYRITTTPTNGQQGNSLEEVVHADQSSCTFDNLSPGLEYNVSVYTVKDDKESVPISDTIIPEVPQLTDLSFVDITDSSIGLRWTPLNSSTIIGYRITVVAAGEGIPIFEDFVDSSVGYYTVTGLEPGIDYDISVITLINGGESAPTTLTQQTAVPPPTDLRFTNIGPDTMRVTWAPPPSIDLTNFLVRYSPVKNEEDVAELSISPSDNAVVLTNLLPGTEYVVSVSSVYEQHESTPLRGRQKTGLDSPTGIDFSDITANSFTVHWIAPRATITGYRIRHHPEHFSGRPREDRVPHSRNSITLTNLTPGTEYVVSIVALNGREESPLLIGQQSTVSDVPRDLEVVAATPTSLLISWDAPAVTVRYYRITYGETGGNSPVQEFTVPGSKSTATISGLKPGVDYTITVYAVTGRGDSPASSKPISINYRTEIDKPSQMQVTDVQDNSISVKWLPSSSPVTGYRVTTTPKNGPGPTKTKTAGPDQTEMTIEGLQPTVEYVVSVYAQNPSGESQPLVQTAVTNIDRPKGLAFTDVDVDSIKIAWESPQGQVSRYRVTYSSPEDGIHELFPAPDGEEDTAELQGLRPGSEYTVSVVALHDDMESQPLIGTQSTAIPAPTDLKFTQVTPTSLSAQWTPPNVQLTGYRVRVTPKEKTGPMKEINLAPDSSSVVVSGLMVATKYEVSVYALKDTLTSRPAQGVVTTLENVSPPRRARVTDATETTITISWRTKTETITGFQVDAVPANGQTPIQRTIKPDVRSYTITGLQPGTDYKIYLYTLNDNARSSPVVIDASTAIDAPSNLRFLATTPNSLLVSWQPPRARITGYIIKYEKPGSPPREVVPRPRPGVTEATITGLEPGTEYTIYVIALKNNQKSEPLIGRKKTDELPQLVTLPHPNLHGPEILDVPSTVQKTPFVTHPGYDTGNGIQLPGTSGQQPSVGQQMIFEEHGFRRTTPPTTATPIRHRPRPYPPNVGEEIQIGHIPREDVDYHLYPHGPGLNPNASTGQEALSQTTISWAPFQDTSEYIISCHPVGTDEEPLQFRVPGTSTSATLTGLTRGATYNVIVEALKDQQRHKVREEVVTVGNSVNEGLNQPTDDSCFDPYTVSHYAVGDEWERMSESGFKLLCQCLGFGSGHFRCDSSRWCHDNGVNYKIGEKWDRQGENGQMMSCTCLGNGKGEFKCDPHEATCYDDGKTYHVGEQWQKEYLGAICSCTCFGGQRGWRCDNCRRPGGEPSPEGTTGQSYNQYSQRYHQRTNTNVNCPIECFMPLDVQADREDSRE

Row | Substance | Kd (fibronectin [1]) [nM] | Kd (fibronectin [2]) [nM] | koff (fibronectin [2]) [s⁻¹] | kon (fibronectin [2]) [M⁻¹ s⁻¹]
1 | GST-OspC_(N40-D10/E9) (natural protein; other documents disagree on this pair) | 350 | – | – | –
2 | OspC297, untagged (natural protein) | – | 1750 | 0.06 | 36800

Source: paper PMC7255614
